This is an account of results in patent US20100260765A1 (AstraZeneca / MedImmune, published 2010).

Where a chain is given by its changes, count along the chain named.

The labels stand for the following.
B1: 32B2 (antibody, V domains shown)
VH: EVQLLESGGGLVQPGGSLRLSCAASGFTFSNYAMSWVRQAPGKGLDWVSAISGRGGSTYYADSVKGRFTISRDNSKNTLFLLMNSLRAEDTAVYYCAKASGDDWGQGTLVTVSS
VL: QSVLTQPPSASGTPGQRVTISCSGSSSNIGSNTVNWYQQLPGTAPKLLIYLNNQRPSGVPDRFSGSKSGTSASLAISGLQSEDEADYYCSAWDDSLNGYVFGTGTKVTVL
notes: Fully human mAb from XenoMouse hybridoma, tested as hybridoma supernatant
B2: 29D4 (antibody, V domains shown)
VH: QLQLQESGPGLVKPSETLSLTCTVSGGSISSRSNYWGWIRQPPGKGLEWIGTIYYSGHTYYNPSLKSRVSISVDTSKNQFSLKLSSVTATDTALYYCARQQLVLYYFEYWGQGTLVTVSS
VL: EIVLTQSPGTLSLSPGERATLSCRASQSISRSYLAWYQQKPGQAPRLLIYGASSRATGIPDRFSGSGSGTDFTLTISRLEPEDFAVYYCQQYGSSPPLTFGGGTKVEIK
notes: as for B1
B3: 32F4 (antibody, V domains shown)
VH: B2 VH with E16G, T21S, N34D, H58N, Y60F, S70T, N78K, T90A, L94V, E108D
VL: EIVLTQSPGTLSLSPGERATLSCRTSQSVSSSYLAWYQQKPGQAPRLLIYGASSRATGVPDRFSGSGSGTDFSLTISRLEPEDFAVYYCQQYGSSPPLTFGGGTKVEIK
notes: as for B1
B4: 29A3 (antibody, V domains shown)
VH: QVQLQESGPGLVKPSETLSLTCTVSGGSISSYFWSWIRQPAGKGLEWIGRIYFSGRTNYNPSLKSRVTMSVETSKNQFSLKLNSVTAADTAVYYCARDGGWNYDVAFDYWGQGTLVTVSS
VL: QAVLTQPSSLSASPGASASLTCTLRSGINVGTYRIYWYQQKPGSPPQYLLRYKSDSDQLQGSGVPSRFSGSKDASANAGILLISGLQSEDEADYYCMVWHSNTWVFGGGTKLTVL
notes: as for B1
B5: 29H3 (antibody, V domains shown)
VH: QVQLVQSGAEVKKPGASVKVSCKASGYTFTSYDINWVRQATGQGLEWMGWMNPNSGKTGYAQKFQGRVTMTRNTSINTAYMELSSLRSEDTAVYYCARGGYSNLGWFDPWGQGTLVTVSS
VL: DIQMTQSPSSVSASVGDRVTITCRASQGISSWLVWYHQKPGKAPKLLIYGASSLQSGVPSRFSGSGSGTDFTLTISSLQPEDFATYYCQQANNFPFTFGPGTKVDIK
notes: as for B1
B6: 33D5 (antibody, V domains shown)
VH: B5 VH with T30G, K57N, M70L, N77R, A79V, T114S
VL: B5 VL with A13V, V34A, H37Q, G50A, N93S
notes: as for B1
B7: 29F7 (antibody, V domains shown)
VH: B5 VH with N73S, N77S
VL: B5 VL with S12F, S31T, V34A, H37Q, L46F, G50A, E81D
notes: as for B1

T1 sequence (P35968 20-764): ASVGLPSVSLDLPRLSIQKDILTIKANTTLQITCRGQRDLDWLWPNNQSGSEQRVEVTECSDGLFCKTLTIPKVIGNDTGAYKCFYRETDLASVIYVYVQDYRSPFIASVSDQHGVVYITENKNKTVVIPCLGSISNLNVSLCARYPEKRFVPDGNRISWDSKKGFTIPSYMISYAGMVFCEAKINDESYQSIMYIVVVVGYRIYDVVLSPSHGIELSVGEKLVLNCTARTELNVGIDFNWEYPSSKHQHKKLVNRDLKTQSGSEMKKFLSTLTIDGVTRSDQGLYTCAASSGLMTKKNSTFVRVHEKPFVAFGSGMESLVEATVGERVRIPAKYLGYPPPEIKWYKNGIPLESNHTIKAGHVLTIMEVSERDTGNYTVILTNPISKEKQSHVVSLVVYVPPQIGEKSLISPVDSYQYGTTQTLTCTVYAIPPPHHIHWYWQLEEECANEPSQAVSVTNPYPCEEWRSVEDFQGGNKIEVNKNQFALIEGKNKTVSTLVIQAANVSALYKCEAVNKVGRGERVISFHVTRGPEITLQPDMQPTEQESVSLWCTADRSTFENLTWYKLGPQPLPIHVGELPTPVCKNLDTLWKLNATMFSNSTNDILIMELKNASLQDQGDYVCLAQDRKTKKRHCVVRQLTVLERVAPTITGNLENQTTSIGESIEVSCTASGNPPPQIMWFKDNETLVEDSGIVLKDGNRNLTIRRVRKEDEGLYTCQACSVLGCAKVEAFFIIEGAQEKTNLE
KDR endogenously expressed on human umbilical vein endothelial cells (HUVEC), sequence (P35968 20-1356): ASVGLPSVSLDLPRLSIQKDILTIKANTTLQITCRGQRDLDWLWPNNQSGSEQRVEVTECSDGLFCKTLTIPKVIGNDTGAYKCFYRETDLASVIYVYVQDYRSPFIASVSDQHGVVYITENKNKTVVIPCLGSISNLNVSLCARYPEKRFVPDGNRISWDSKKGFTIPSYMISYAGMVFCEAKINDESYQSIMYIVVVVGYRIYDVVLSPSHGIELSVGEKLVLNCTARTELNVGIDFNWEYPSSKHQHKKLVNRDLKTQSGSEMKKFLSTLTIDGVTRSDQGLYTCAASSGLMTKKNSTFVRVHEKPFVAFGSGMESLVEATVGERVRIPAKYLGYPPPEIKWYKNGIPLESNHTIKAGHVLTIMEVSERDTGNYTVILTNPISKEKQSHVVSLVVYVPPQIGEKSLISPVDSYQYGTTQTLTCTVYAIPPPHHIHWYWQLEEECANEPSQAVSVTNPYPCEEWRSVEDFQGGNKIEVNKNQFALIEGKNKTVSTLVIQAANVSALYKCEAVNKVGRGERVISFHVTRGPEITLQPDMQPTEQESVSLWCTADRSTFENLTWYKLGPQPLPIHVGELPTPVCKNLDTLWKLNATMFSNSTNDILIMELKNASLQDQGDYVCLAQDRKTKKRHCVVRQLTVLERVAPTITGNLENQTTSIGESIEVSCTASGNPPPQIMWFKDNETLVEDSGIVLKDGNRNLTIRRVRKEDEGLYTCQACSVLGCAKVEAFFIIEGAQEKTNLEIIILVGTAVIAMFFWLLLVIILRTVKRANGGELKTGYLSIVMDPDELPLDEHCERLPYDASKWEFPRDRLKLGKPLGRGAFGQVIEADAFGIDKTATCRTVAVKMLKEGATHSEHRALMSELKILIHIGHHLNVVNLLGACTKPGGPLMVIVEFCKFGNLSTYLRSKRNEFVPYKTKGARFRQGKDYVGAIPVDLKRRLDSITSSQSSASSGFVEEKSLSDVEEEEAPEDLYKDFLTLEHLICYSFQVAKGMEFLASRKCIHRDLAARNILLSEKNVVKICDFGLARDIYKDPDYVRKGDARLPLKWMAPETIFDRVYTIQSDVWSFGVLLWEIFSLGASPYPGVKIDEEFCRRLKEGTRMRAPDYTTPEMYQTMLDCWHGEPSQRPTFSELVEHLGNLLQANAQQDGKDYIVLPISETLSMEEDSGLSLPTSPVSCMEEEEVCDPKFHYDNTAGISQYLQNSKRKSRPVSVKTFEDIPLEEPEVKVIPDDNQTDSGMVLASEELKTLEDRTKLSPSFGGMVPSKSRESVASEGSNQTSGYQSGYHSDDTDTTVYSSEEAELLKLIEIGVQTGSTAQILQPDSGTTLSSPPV

One assay addresses T1, soluble KDR extracellular domain (ECD) (Calbiochem) (human, UniProt P35968 20-764).
T1 construct: extracellular domain; Bought protein; also called KDR-ECD; VEGF Receptor 2 D1-7, Cat. #676490
Nature of the assay: Limited Antigen ELISA, KDR coat 25 ng/mL, supernatant 1:25. How it is done: (§1) Samples containing one concentration of antibody (Ab) (1:25 dilution) were incubated overnight to allow Ab binding to approach equilibrium. The low antigen concentration limited the effect of antibody concentration, allowing ranking of the antibodies based on their relative affinity.
A general note: ELISA stands for enzyme-linked immunosorbent assay.
As for B1, the ELISA reading worked out at 1.69.
Regarding B2, the ELISA reading was determined as 1.87.
On the same count and under the same terms, for B3 the value was 1.09.
Same read-out and setting: for B4 the value was 1.13; for B5, 1.03; for B6, 2.2.
The same measure, in the same setting: with B7 the figure was 2.19.

The target of the next assay is T1, soluble KDR extracellular domain (ECD) …. As to the kind of experiment: High Antigen ELISA, KDR coat 500 ng/mL, supernatant 1:6075. How it is done:
(§2) ELISA plates were coated with a greater amount of KDR (at 500 ng/mL) in comparison with the Limited Antigen Quantitation assay described below. Sample containing antibody (Ab) was titrated on the KDR-coated ELISA plates and was incubated overnight at 4° C. to allow Ab binding to approach equilibrium. Titration of Ab in sample covered a dilution range of 1:25 to 1:18,225. A standard curve of KDR-specific antibody of known concentration was used to define the linear range of the assay. Data within the linear range were used to derive the relative concentration of KDR-specific Ab in each titrated sample. The high KDR concentration and the overnight incubation limited the effect of Ab affinity, allowing quantitation of the relative amount of KDR-specific Ab present in each sample.
As for B1, the ELISA reading amounted to 1.54.
The molecule B2 gave an ELISA reading of 0.66.
Same read-out and setting: for B3 the value was 0.97.
On the same count and under the same terms, with B4 the figure was 0.57; with B5, 0.47.
For the molecule B6, the ELISA reading was determined as 1.7.
Same read-out and setting: with B7 the figure was 0.57.

For a further assay the target is unchanged. As to the kind of experiment: High Antigen ELISA, KDR coat 500 ng/mL, supernatant 1:225. As to the method:
as §2
With B1, the ELISA reading was 6.
On the same count and under the same terms, with B2 the figure was 6.
Still for that read-out and setting: with B3 the figure was 6; with B4, 3.85.
Still for that read-out and setting: for B5 the value was 4.29; for B6, 4.78; for B7, 4.26.

A further assay shares this target. Nature of the assay: Limited Antigen ELISA, KDR coat 6.25 ng/mL, supernatant 1:25. How it is done: as §1
In the case of B1, the ELISA reading stood at 0.42.
The molecule B2 displayed an ELISA reading of 0.41.
B3 yielded an ELISA reading of 0.36.
The molecule B4 had an ELISA reading of 0.27.
Take B5: the ELISA reading turned out to be 0.24.
Still for that read-out and setting: for B6 the value was 0.61.
B7 returned an ELISA reading of 0.51.

Another assay has the same target. As to the kind of experiment: High Antigen ELISA, KDR coat 500 ng/mL, supernatant 1:25. As to the method:
as §2
The molecule B1 displayed an ELISA reading of 6.
Still for that read-out and setting: with B2 the figure was 4.24.
On the same count and under the same terms, with B3 the figure was 4.79; with B4, 3.89.
On to B5, for which the ELISA reading is 4.52.
In turn, B6 yielded an ELISA reading of 4.61.
The same measure, in the same setting: for B7 the value was 4.42.

For the next assay the target is unchanged. As to the kind of experiment: Limited Antigen ELISA, KDR coat 50 ng/mL, supernatant 1:25. How it is done: as §1
B1 returned an ELISA reading of 2.9.
On the same count and under the same terms, with B2 the figure was 3.31.
B3 gave an ELISA reading of 2.22.
Still for that read-out and setting: for B4 the value was 2.27; for B5, 2.13.
Molecule B6 registered an ELISA reading of 3.81.
Same read-out and setting: with B7 the figure was 3.54.

Another assay has the same target. Nature of the assay: High Antigen ELISA, KDR coat 500 ng/mL, supernatant 1:75. How it is done:
as §2
Molecule B1 displayed an ELISA reading of 6.
On the same count and under the same terms, with B2 the figure was 5.57; with B3, 5.56; with B4, 4.06.
In turn, B5 gave an ELISA reading of 4.96.
Still for that read-out and setting: with B6 the figure was 4.56; with B7, 4.49.

The target is the same in the next assay. As to the kind of experiment: Limited Antigen ELISA, KDR coat 3.125 ng/mL, supernatant 1:25. As to the method:
as §1
In the case of B1, the ELISA reading was 0.25.
Molecule B2 had an ELISA reading of 0.23.
The same measure, in the same setting: for B3 the value was 0.23; for B4, 0.16.
Still for that read-out and setting: for B5 the value was 0.16; for B6, 0.33; for B7, 0.25.

For the next assay the target is unchanged. As to the kind of experiment: High Antigen ELISA, KDR coat 500 ng/mL, supernatant 1:675. As to the method:
as §2
Turning to B1, the ELISA reading is 6.
The same measure, in the same setting: with B2 the figure was 4.09.
B3 showed an ELISA reading of 4.61.
The same measure, in the same setting: for B4 the value was 3.32; for B5, 2.83.
As to B6, the ELISA reading turned out to be 6.
With B7, the ELISA reading was 3.76.

For another assay the target is unchanged. As to the kind of experiment: High Antigen ELISA, KDR coat 500 ng/mL, supernatant 1:18,225. As to the method:
as §2
Take B1: the ELISA reading stood at 0.8.
The same measure, in the same setting: for B2 the value was 0.25; for B3, 0.5; for B4, 0.24.
Consider B5, for which the ELISA reading turned out to be 0.21.
Turning to B6, the ELISA reading was 0.87.
Regarding B7, the ELISA reading is 0.22.

For another assay the target is unchanged. As to the kind of experiment: Limited Antigen ELISA, KDR coat 12.5 ng/mL, supernatant 1:25. How it is done: as §1
B1 yielded an ELISA reading of 0.86.
The same measure, in the same setting: with B2 the figure was 0.8.
Still for that read-out and setting: with B3 the figure was 0.74; with B4, 0.49.
Turning to B5, the ELISA reading is 0.4.
The same measure, in the same setting: for B6 the value was 1.32.
Still for that read-out and setting: with B7 the figure was 1.

The next assay addresses KDR endogenously expressed on human umbilical vein endothelial cells (HUVEC) (human, UniProt P35968 20-1356). Nature of the assay: cell-based or functional assay.
Consider B1, for which the “VEGF-E-mediated Survival % Inhibition (Average)” value is -6%, the “VEGF-E-mediated Survival % Inhibition (n = 1)” value is -2% and the “VEGF-E-mediated Survival % Inhibition (n = 2)” value was -9%.
On the same counts, the results for B2 are 66%, 64% and 67%.
Take B3: the “VEGF-E-mediated Survival % Inhibition (Average)” value worked out at 64%, the “VEGF-E-mediated Survival % Inhibition (n = 1)” value was determined as 64% and the “VEGF-E-mediated Survival % Inhibition (n = 2)” value worked out at 64%.
For B4, the “VEGF-E-mediated Survival % Inhibition (Average)” value was -10%, the “VEGF-E-mediated Survival % Inhibition (n = 1)” value is -1% and the “VEGF-E-mediated Survival % Inhibition (n = 2)” value is -20%.
As for B5, the “VEGF-E-mediated Survival % Inhibition (Average)” value was -15%, the “VEGF-E-mediated Survival % Inhibition (n = 1)” value is -19% and the “VEGF-E-mediated Survival % Inhibition (n = 2)” value was -11%.
Regarding B6, the “VEGF-E-mediated Survival % Inhibition (Average)” value is 0%, the “VEGF-E-mediated Survival % Inhibition (n = 1)” value was -2% and the “VEGF-E-mediated Survival % Inhibition (n = 2)” value is 2%.
On the same counts, the results for B7 are 11%, 15% and 6%.

For a further assay, the target named is T1, soluble KDR extracellular domain (ECD) …. Nature of the assay: High Antigen ELISA, KDR coat 500 ng/mL, supernatant 1:2025. As to the method:
as §2
Take B1: the ELISA reading was found to be 3.33.
B2 had an ELISA reading of 2.06.
B3 came in with an ELISA reading of 2.71.
The same measure, in the same setting: for B4 the value was 1.91; for B5, 1.42; for B6, 3.65.
B7 displayed an ELISA reading of 1.68.
